Experiments:
[1] = system: PC12 cells; test: PC12 cell neurite outgrowth; assay type: cell-based
Procedure: 1×10^4 PC12 cells per well were plated on mouse laminin-and-poly-L-lysine-coated 24-well plates in 1 ml of media (RPMI 1640, 10% horse serum, 5% FCS, antibiotics) and stimulated with 1 nM bFGF or 2 nM C19-jun protein in the presence of 15 U/ml heparin for 4 days.

[2] = system: Swiss 3T3 cells; test: Swiss 3T3 mitogenesis with soluble receptor ECD competitors; assay type: cell-based
Procedure: To further examine the specificity of C19jun for FGFR, Swiss 3T3 cells were stimulated with C19jun in the presence of protein representing the soluble extracellular binding domain (ECD) of various receptors used as binding competitors. The mitogenic activity of C19jun was abolished by pre-incubation of the fusion protein with excess FGFR1c ECD, but was unaffected by incubation with identical concentrations of the closely related PDGF receptor ECD or with erythropoietin receptor ECD. […] Similar results were observed when phosphorylation of MAPK was analyzed in these cells.
(§1) Protein representing the linker segments and c-jun leucine zipper without the C19 sequence (FIG. 2) was expressed, purified, and characterized as for C19jun. C19 peptide with an intrapeptide disulfide bond was synthesized, purified by HPLC, and characterized by mass spectroscopy. C19junΔhep protein was prepared by changing human c-jun residues Arg276, Arg279, Lys285, and Lys288 in the leucine zipper domain to glutamines. Expression, purification, and characterization was as for C19jun. […] The extracellular ligand-binding domain of human FGFR Ic (residues 1-377) and human erythropoietin receptor (residues 1-250) were fused to the Fc region of human IgG1, expressed in baculovirus and purified by protein A affinity chromatography. Activity of the fusion proteins was confirmed by binding of [^125I]-labeled ligands. PDGF receptor Fc fusion protein was from R&D Systems.

[3] = system: 293 cells expressing full-length FGFR1c; test: MAP kinase phosphorylation in 293 cells expressing FGFR1c; assay type: cell-based; conditions: 1.0 nM bFGF or 50 nM C19jun, 15 U/ml heparin, 15 minutes
Procedure: (§2) To determine whether C19jun could activate FGF receptors in vivo, Swiss 3T3 cells were treated with basic FGF (bFGF) or purified C19jun protein. Cell extracts were then immunoprecipitated with anti-FGFR antibodies, analyzed by SDS-PAGE and immunoblotted with anti-phosphotyrosine antibodies. Extracts from bFGF and C19jun-stimulated 293 cells expressing FGFR1c were also immunoblotted with phospho-MAP Kinase-specific antibodies.
(§3) Swiss 3T3 fibroblasts, or 293 cells expressing full-length FGFRIc were incubated in quiescing media (DMEM, 1 μg/ml insulin, 5 μg/ml transferrin, 0.5 mg/ml BSA) for 24-48 hrs, and then stimulated with 1.0 nM bFGF or 50 nM refolded C19jun protein in the presence of 15 U/ml heparin for 15 minutes at 37° C. The cells were lysed and aliquots of lysate containing equal amounts of total protein were either analyzed directly by immunoblotting with phospho-MAPKspecific antibodies and anti-total MAPK antisera (New England Biolabs) or immunoprecipitated with anti-FGFR antisera and immunoblotted with anti-phosphotyrosine antibodies (Upstate Biotechnology, Inc.). Both bFGF and C19jun induced FGFR autophosphorylation and MAP kinase phosphorylation.

[4] = system: Swiss 3T3 cells; test: Swiss 3T3 proliferation, WST-1 long term assay; assay type: cell-based; conditions: WST-1, 4 successive days, 15 U/ml heparin, FIG. 4
Procedure: Swiss 3T3 cells were plated on gelatin-coated 96-well microtiter plates in quiescent media containing the indicated concentrations of bFGF or C19-jun protein and 15 U/ml heparin and cell number estimated on each of 4 successive days by the WST-1 assay as per manufacturers instructions (Cell proliferation Reagent WST-1, no. 1644807, Boehringer-Mannheim).

[5] = system: human endothelial cells; test: Proliferation of human endothelial cells; assay type: cell-based
[6] = system: Swiss 3T3 fibroblasts; test: BrdU incorporation (mitogenesis) in Swiss 3T3 fibroblasts; assay type: cell-based; conditions: Swiss 3T3, presence and absence of heparin
Procedure: 6×Histidine-tagged Clone 19-jun protein (FIG. 1A) was expressed in bacteria and purified by metal affinity chromatography as described in Example 5. Assay of BrdU incorporation, a measure of entry of cells into S-phase and therefore of mitogenesis, was performed according to manufacturers instructions (Cell proliferation ELISA, BrdU, Cat. No. 1-647-229, Boehringer-Mannheim, Indianapolis, Ind.). Briefly, 1×10^4 Swiss 3T3 cells per well were plated on gelatin-coated 96-well microtiter plates in complete media (DMEM, 10% FCS, antibiotics), incubated 24 hours, and the media changed to quiescent media for an addition 24 hours (DMEM containing 0.5 mg/ml bovine serum albumin, 1 μg/ml insulin, 5 μg/ml transferrin, antibiotics). The cells were then treated with bFGF or Clone 19-jun protein at the indicated concentrations in the presence of 15 U/ml heparin. 18 hours later, BrdU was added, the cells incubated an additional 4 hours, and assayed as described. […] Heparin alone had no effect, nor did a control protein expressed and purified in the same manner in which the C19 sequence was deleted.

[7] = system: control L6 cells; test: c-fos mRNA expression in control L6 cells that do not express FGFR; assay type: cell-based
[8] = Binding to heparin agarose beads
[9] = system: FGFR; test: FGFR autophosphorylation in Swiss 3T3 cells (anti-FGFR IP, anti-phosphotyrosine blot); assay type: cell-based; conditions: 1.0 nM bFGF or 50 nM C19jun, 15 U/ml heparin, 15 minutes
Procedure: as §2, §3

[10] = target: T1, FGFR1c ECD (Homo sapiens, UniProt P11362); test: BIAcore real-time kinetic analysis on immobilized FGFR1c ECD; assay type: binding; conditions: in vitro, absence of heparin
T1 construct: human FGFR Ic (residues 1-377); made in house
T1 sequence (P11362 22-377): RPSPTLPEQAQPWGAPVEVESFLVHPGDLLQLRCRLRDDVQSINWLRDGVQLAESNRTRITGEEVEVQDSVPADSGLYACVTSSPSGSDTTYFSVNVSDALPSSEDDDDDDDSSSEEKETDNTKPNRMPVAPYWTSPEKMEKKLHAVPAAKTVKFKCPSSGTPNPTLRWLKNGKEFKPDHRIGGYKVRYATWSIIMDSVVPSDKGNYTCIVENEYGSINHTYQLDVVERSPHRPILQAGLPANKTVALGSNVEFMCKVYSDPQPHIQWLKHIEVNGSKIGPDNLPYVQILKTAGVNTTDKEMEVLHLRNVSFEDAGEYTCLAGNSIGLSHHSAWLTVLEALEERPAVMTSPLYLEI
Procedure: Apparent affinities for immobilized FGFR1c ECD were determined using BIAcore real-time kinetic analysis in the absence of heparin.
as §1, with “Activity of the fusion proteins was confirmed by binding of [^125I]-labeled ligands.” left out

[11] = system: L6 myoblast cell lines stably expressing FGFR1c; test: c-fos mRNA expression in L6 myoblasts stably expressing FGFR1c; assay type: cell-based
[12] = Swiss 3T3, identical concentration

B1: C19jun: C19 sequence fused via flexible linker to human c-jun leucine zipper (residues 276-314) flanked by cysteines, polyhistidine tag; SEQ ID NO:41 (protein)
chain: MAESGDDYCVLVFTDSAWTKICDWSHFRNGPGGGSGGGSGGGSGGGSGGGSRCGGRIARLEEKVKTLKAQNSELASTANMLREQVAQLKQKVMNHGGCGGSGGHHHHHH
modifications: SyArtificial Sequence
Q: Which “heparin dependence of morphogenic activity on PC12 cells” value [1] does the source give for B1 here?
A: required for the morphogenic activity

Q: What about the “neurite outgrowth / PC12 cell differentiation” value ([1]; 1 nM bFGF or 2 nM C19-jun, 15 U/ml heparin, 4 days) of the same molecule?
A: induces PC12 cell differentiation as well or better than bFGF

Q: What about the “mitogenic activity after pre-incubation with excess FGFR1c ECD” value ([2]; Swiss 3T3) of the same molecule?
A: abolished

Q: And the “mitogenic activity after incubation with PDGF receptor ECD” value [2, 12]?
A: unaffected

Q: What about the “mitogenic activity after incubation with erythropoietin receptor ECD” value [2, 12] of the same molecule?
A: unaffected

Q: And the MAP kinase phosphorylation [3]?
A: induced

Q: What about the “Swiss 3T3 proliferation in long term assay” value [4] of the same molecule?
A: equal or greater extent than 1 nM bFGF

Q: And the “Swiss 3T3 proliferation in long term assay” value ([4]; listed as C19-jun)?
A: as well or better than bFGF

Q: What about the “proliferation of human endothelial cells” value [5] of the same molecule?
A: stimulated the proliferation

Q: And the “heparin dependence of mitogenic activity” value [6]?
A: required for optimal mitogenic activity

Q: What about the “c-fos mRNA expression in control L6 cells” value [7] of the same molecule?
A: neither was active

Q: And the heparin binding [8]?
A: quantitatively and specifically bound to heparin agarose beads

Q: And the FGFR autophosphorylation [9]?
A: induced

Q: And the “binding to immobilized FGFR ECD” value [10]?
A: high affinity and specificity

Q: What about the “c-fos mRNA expression in FGFR-expressing L6 cells” value [11] of the same molecule?
A: stimulated c-fos mRNA expression
